Reference: patent US7109299 (dated 2006)
Bridge positions count the residues as written; N and C are the ends. Square brackets hold non-standard residues; d marks the D form. Ends that are not written are not given here. Dap = NC[C@H](N)C(=O)O; Ahx = NCCCCCC(=O)O

Columns and labels:
[1] = molecular target: T1, IL-5RαECD, extracellular domain (ECD) of the human IL-5 receptor α chain, soluble (human, UniProt Q01344 21-342); assay: scintillation proximity competition assay, dimer against 20 pM [125I] IL-5 on IL-5Rα coated beads
T1 construct: extracellular domain; Captured through mAb 179 (anti-HPAP tail) in the plate, SPA and bead assays; also called soluble IL-5Rα; IL-5 receptor alpha chain extracellular domain
T1 sequence (Q01344 whole entry, looked up): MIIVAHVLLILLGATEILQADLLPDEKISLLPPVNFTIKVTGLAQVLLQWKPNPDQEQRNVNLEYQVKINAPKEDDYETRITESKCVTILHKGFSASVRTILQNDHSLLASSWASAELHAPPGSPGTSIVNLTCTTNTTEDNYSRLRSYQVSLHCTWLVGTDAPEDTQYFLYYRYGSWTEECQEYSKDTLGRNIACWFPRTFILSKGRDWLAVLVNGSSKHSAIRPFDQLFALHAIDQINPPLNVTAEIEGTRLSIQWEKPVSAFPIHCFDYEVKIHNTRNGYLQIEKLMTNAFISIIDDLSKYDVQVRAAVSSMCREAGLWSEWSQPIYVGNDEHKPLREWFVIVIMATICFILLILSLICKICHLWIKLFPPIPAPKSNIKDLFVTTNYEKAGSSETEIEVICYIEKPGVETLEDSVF
Experimental: (§1) Binding affinities of synthetic peptides for IL-5Rα were measured in a scintillation proximity assay (SPA) using radio-iodinated IL-5. Streptavidin coated SPA beads (Amersham) were suspended in IL-5 binding buffer (phosphate buffered saline, 0.1% bovine serum albumin, 0.2% NaN_3) at 2 mg beads/ml of buffer. Biotinylated mAb 179 was adsorbed onto the beads at a ratio of 2 μg Ab/mg beads by incubating the beads and antibody with agitation for at least 2 h. at 4°. The beads were pelleted at 2500 rpm and resuspended at 2 mg/ml in binding buffer. Soluble IL-5Rα was then adsorbed onto the beads by diluting a solution of soluble receptor harvest 1:500 into the bead suspension and incubating with agitation for 2 hr at 4°. The beads were again pelleted at 2500 rpm and resuspended at 2 mg/ml in binding buffer. Competition binding assays were carried out in 100 μl reactions in white polystyrene microtiter plates. […] IL-5 (Amersham). The plates were incubated at room temperature for 1 hour with agitation, then centrifuged for 5 min at 1500 rpm followed by scintillation counting on a Topcount instrument (Packard). […] IL-5 bound in the absence of any competitor. […] IL-5 bound in the presence of 30 nM IL-5. […] IL-5 binding by 50% (IC$50$). In each instance, the dimer has both intramolecular and intermolecular disulfide linkages as shown generically below: […]

[2] = molecular target: T2, native IL-5R α/β complex on cells (TF-1 cells; human eosinophils) (human, UniProt Q01344 21-420; P32927 17-897); assay: cell-based or functional assay
T2 sequence (looked up) 1: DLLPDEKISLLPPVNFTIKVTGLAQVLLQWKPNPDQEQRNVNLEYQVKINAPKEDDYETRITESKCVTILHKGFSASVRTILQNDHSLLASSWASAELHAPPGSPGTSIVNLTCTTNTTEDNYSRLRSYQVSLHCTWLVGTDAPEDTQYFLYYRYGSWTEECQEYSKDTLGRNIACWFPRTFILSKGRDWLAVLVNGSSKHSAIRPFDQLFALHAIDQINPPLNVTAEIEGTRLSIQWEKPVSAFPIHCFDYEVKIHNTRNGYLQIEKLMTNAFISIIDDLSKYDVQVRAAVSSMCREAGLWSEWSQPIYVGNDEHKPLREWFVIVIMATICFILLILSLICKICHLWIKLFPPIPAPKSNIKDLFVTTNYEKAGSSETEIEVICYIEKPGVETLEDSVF
T2 sequence (looked up) 2: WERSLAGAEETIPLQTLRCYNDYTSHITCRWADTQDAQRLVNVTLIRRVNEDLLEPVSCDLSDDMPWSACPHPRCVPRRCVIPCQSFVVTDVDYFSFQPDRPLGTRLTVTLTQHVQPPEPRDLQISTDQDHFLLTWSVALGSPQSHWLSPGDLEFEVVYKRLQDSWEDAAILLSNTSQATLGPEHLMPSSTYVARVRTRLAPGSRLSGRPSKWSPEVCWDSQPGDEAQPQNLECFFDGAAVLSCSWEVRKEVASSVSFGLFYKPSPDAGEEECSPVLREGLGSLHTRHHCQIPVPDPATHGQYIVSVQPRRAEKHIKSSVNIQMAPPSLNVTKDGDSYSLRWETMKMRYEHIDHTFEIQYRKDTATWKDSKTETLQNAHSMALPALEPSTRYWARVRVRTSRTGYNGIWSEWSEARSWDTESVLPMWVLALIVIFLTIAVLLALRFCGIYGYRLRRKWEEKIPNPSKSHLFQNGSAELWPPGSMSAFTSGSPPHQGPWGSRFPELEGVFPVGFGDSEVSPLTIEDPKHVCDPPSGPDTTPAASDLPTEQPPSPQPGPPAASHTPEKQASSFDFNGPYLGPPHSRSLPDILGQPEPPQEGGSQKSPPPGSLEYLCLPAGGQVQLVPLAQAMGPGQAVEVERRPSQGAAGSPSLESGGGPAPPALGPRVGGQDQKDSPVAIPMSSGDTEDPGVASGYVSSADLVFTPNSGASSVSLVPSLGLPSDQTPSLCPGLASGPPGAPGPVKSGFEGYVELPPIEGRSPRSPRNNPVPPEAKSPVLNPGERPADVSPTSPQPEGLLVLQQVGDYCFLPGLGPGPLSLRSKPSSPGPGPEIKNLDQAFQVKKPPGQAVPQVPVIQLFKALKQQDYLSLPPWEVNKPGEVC

[3] = molecular target: IL-5RαECD, extracellular domain (ECD) of the human IL-5 receptor α chain, soluble (human, UniProt Q01344 21-342); assay: scintillation proximity competition assay, dimer against 20 pM [125I] IL-5 on IL-5Rα coated beads
Experimental: as §1

Binder: H-TGGGDGYVCVEWARCPTCK-OH (disulfide 15-18; also: homodimer via interchain Cys9-Cys9 disulfide) [AF18748, synthetic dimer of (H)-TGGGDGYVCVEWARCPTCK-(OH)]
- SPA pIC50 [1]: 9.1
- Microphysiometer pIC50 (block of the TF-1 cell response to IL-5) [2]: 9.6

B1: dimer of (H)-EGYVCVEWARCPTCR-(OH) (peptide)
peptide: H-EGYVCVEWARCPTCR-OH
modifications: disulfide (positions not given here); also: dimer, intramolecular and intermolecular disulfide linkages, places not given here
- SPA pIC50 [1]: 8.4
- Microphysiometer pIC50 (block of the TF-1 cell response to IL-5) [2]: 9.6

B2: dimer of (H)-GYVCVEFARCPTCG-(NH2) (peptide)
peptide: H-GYVCVEFARCPTCG-NH2
modifications: disulfide (positions not given here); also: dimer, intramolecular and intermolecular disulfide linkages, places not given here
- SPA pIC50 [3]: 6.1

B3: dimer of (H)-EGYVCVEWARCPTCR-(NH2) (peptide)
peptide: H-EGYVCVEWARCPTCR-NH2
modifications: disulfide (positions not given here); also: dimer, intramolecular and intermolecular disulfide linkages, places not given here
- Microphysiometer pIC50 (block of the TF-1 cell response to IL-5) [2]: 9.1

B4: dimer of (H)-EGYVCVEFARCPTCR-(OH) (peptide)
peptide: H-EGYVCVEFARCPTCR-OH
modifications: disulfide (positions not given here); also: dimer, intramolecular and intermolecular disulfide linkages, places not given here
- SPA pIC50 [1]: 6.8

B5: dimer of (Ac)-EGYVCVEWARCPTCK-(NH2) (peptide)
peptide: Ac-EGYVCVEWARCPTCK-NH2
modifications: disulfide (positions not given here); also: dimer, intramolecular and intermolecular disulfide linkages, places not given here
- Microphysiometer pIC50 (block of the TF-1 cell response to IL-5) [2]: 8.5

B6: dimer of two chains of residues 36-50 of SEQ ID NO: 9 (structure only in drawing CHEM-US-00014) (peptide)
peptide: Ac-EGYV[Dap]VEWARCPTCR-NH2
modifications: cysteine pairing not given here; also: homodimer, link between chains only in drawing
- Microphysiometer pIC50 (block of the TF-1 cell response to IL-5) [2]: 6.5

B7: dimer of (Ac)-EGYVCVEWAACPTCR-(NH2) (peptide)
peptide: Ac-EGYVCVEWAACPTCR-NH2
modifications: disulfide (positions not given here); also: dimer, intramolecular and intermolecular disulfides, places not given here
- Microphysiometer pIC50 (block of the TF-1 cell response to IL-5) [2]: 6.9

B8: dimer of (Ahx)-EGYVCVEWARCPTCR-(NH2) (peptide)
peptide: [Ahx]EGYVCVEWARCPTCR-NH2
modifications: disulfide (positions not given here); also: dimer, intramolecular and intermolecular disulfide linkages, places not given here
- Microphysiometer pIC50 (block of the TF-1 cell response to IL-5) [2]: 9

B9: dimer of (H)-EGYVCVEFARCPTCG-(NH2) (peptide)
peptide: H-EGYVCVEFARCPTCG-NH2
modifications: disulfide (positions not given here); also: dimer, intramolecular and intermolecular disulfide linkages, places not given here
- SPA pIC50 [3]: 6.6

B10: dimer of (H)-GYVCVEWARCPTCR-(OH) (peptide)
peptide: H-GYVCVEWARCPTCR-OH
modifications: disulfide (positions not given here); also: dimer, intramolecular and intermolecular disulfide linkages, places not given here
- SPA pIC50 [3]: 8.2
- Microphysiometer pIC50 (block of the TF-1 cell response to IL-5) [2]: 8.4

B11: dimer of (H)-EGYVCVEWARCPTCG-(NH2) (peptide)
peptide: H-EGYVCVEWARCPTCG-NH2
modifications: disulfide (positions not given here); also: dimer, intramolecular and intermolecular disulfide linkages, places not given here
- Microphysiometer pIC50 (block of the TF-1 cell response to IL-5) [2]: 9.1

B12: dimer of (H)-EGYVCVEWARCPTCK-(OH) (peptide)
peptide: H-EGYVCVEWARCPTCK-OH
modifications: disulfide (positions not given here); also: dimer, intramolecular and intermolecular disulfide linkages, places not given here
- SPA pIC50 [3]: 8.7
- Microphysiometer pIC50 (block of the TF-1 cell response to IL-5) [2]: 9.2

B13: dimer of (Ac)-EGYVCVEWARCPTCR-(NH2) (peptide)
peptide: Ac-EGYVCVEWARCPTCR-NH2
modifications: disulfide (positions not given here); also: dimer, intramolecular and intermolecular disulfide linkages, places not given here
- Microphysiometer pIC50 (block of the TF-1 cell response to IL-5) [2]: 8.4
